The nanobody polyreactivity screen of Harvey et al. (2022)

Test: yeast display, Sf9 membrane polyspecificity reagent, FACS + sequencing; frameworks hold sequencing errors
In short: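 Genes from sorted yeast were amplified by colony PCR, read by MiSeq 2 × 250 sequencing and filtered on CDR length. These cells carried a synthetic nanobody library in Saccharomyces cerevisiae BJ5465 and were sorted by FACS into low and high (top ~1%) gates on anti-HA and streptavidin fluorescence. Polyreactivity is labelled according to the gate of origin.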

QVQLVESGGGLVQAGGSLRLSCAAYGSTFTYYAMGWYRQAPGKERELVAAISSSGGSTYYADSVKGRFTISRDNAKNTVYFQMNSLKPEDTAVYYCAARRKFPYRHDYWGQGTQVTVSS
polyreactivity (PSR sort gate): high polyreactivity

QVQLVESGGGLVQAGGSLRLSCAASGIIFYEYVMGWYRQAPGKERELVATISSIGGSTYYADSVKGRFTISRDNAKNTVYLQMNSLKPEDTAVYYCAADPDPVVSRGGNWYGDDYWGQGTQVTVSS
polyreactivity (PSR sort gate): high polyreactivity

QVQLVESGRGLVQAGGSLRLSCAASGRTLSQYAMGWYRQAPGKERELVAAITRSGGSTYYADSVTGRFTISRDISKNTVYLQMNSLKRDDTAVYYCNITLYTTYDYWGQGTQVTVSS
polyreactivity (PSR sort gate): low polyreactivity

QVQLVESGGGLVQAGGSLRLSCAASGRIFYANAMGWYRQAPGKERELVASISTTGDSTYYADSVKGRFTISRDNAKNTDYLQMNSLKPEDTAVYYCNTRGSEYLWYGYDYWGQGTQVTVSS
polyreactivity (PSR sort gate): low polyreactivity

QVQLVESGGGLVQAGGSLLLSCAASGSTFSYYGMGWYRQAPVKERELVAAIDYSGDSTYYADSVKGRFTISRDNSKNTVFLQMNSLKPEDTAVYYCAADDYPWNRYEYWGQGTQVTVSS
polyreactivity (PSR sort gate): low polyreactivity

QVQLVESGGGLVQARGSLRLSCAASGSTVGYNAMGWYRQAPGKERELVAAISGNGGSTYADSVKGRFTISRDNAKNTVYLQMNSLKPEDTAVYYCAAVQYGYGLASDSIFDYWGQGTQVTVSS
polyreactivity (PSR sort gate): high polyreactivity

QVQLVESGGGLVQAGGSLRLSCAASGRTLIAYAMGWYRQAPGKEREFVAAIRADDGRTYYADSVKGRFTISRDNAKNTVYLQMNSLKPEDTAVYYCATKADKRYGFGYWGQGTQVTVSS
polyreactivity (PSR sort gate): high polyreactivity

QVQLVESGGGLVQAGGSLRLSCAASGYIFQKNAMGWYRQAPGKERELVAAISSGTDRTYYADSVKGRFTISRDNAKYTVYLQMNSLKPDDTAVYYCAARYWGGYYYWGQGTQVTVSS
polyreactivity (PSR sort gate): high polyreactivity

QVQLVEAGGGLVQAGGSLRLSCAASGRTFRWYAMGWYRQAPGKERELVAAITIGGASTYYADSVKGRFTISRDNAKNTVYLQMNSLQPEYTAVNYCNAVFVGNDYWGQGTLVTVSS
polyreactivity (PSR sort gate): low polyreactivity

QVQLVESGGGLVQAGGSLRLSCSASGSIFPYYAMGWSRQAPGKERELVAAISRSGGSTYYADSVKGRFTISRDNAKNTVYLQMNSLKPEDTAGYYCAAVGGVRPQQHYYYRYDYWGQGTQVTVSS
polyreactivity (PSR sort gate): high polyreactivity

QVQLVESGGGLVQAGGSLRLSCAASGSIFSVYAMGWYRQAPGKERELVATITWSGGRTYYADSVKGRYTISRDNAKNTVYLQMNSLKPEDTAVYYCAATSWWATTGFDYWGQGTQVTVSS
polyreactivity (PSR sort gate): low polyreactivity

QVQLVESGGGLVQAGGSLRLSCAASGITFEVYAKGWYRQAPGKERELVAVITSVGSTNYADSVKGRFTISRDNAKNTVYLQMNSLKPEDTAVYYCAAEKWTVRRFNPYTYYRYDYWGQGTQVTVSS
polyreactivity (PSR sort gate): low polyreactivity

QVQLVDSGGGLVQAGGSLRLSCAASGYIFGDYVMGWYRQAPGKERELVASISSSGDTNYADSVKGRFTISRDNAMNTVYLQMNSLKPEDTAVYYCAAVDWIGRVHGKPWGGDYWGQGTQVTVSS
polyreactivity (PSR sort gate): low polyreactivity

QVQLVESGGGLVQAGGSLRLSCAASGITIDYYAMGWYRQAPGKERELVAAISSVGNTNYADSVKGRFTISRDNAKNTVYLQMNSLKPEDTAVYYCATYAYYLYHVGTAYDYWGQGTQVTVSS
polyreactivity (PSR sort gate): high polyreactivity

QVQLVESGGGLVQAGGSLRLSCAASGIIFTKYAMGWYRQAPGTERELVAAITSGGRTNYADSVKGRFTISRDNAKNTDYLQMNSLKPEDTAVYYCAARYPSRDLLRRYKYWGQGTQVTVSS
polyreactivity (PSR sort gate): high polyreactivity

QVQLVESGGGLVQAGGSLRLSCAASGYIFLPYAMGWYRQARGKEREVVAAIRWSGGSTYYADSVKGRFTISRDNAKNTVYLQMNSLKPEDTAVYYCAAYYVARDRRYPKAYSYEYWGQGTQVTVLS
polyreactivity (PSR sort gate): high polyreactivity

QVQLEESGGGLVQARVSLRLSSAASGFTLWNYAMGLYRQAPGKERELVAGINSGGRTYYADSVKGRFTISRDNAKNTVYLQMKSLKPEDTAVFYCNARGWSSFSHNSYFMDYWGQGTQVTVSS
polyreactivity (PSR sort gate): high polyreactivity

QVQLVESGRGLVQAGGSLRLSCAASGFIFSNAIGWYRQAPGKERELVAAISRSGGSTYYADSVKGRVTISRDNAKNTVSLQMNSLKPEDTAVEYCAARSYPRSPVRYDYWGQGTQVTVSS
polyreactivity (PSR sort gate): high polyreactivity

QVQLVESGGGLVQAGGSLRLSCADSGRIFNPYAMGWYRQAPGKERELVAGISWGGGSTRYADSVKGRFTISRDNAKNTVYLQMNSLKPVDTAVYYCNSGSYYKRFDYWGKGTQVTVSS
polyreactivity (PSR sort gate): high polyreactivity

QVQLVESGGGLVQAGGSLPLSCASYGSIIVGNVMGWYRQAPGKESELVAAMTSSGTSTFYADSVKGRFTNSRDIAKNTVYLQMNSLKPEVTAVYYCAVDLYWSYFNGSLGYRYYFWGQGTQLTVSS
polyreactivity (PSR sort gate): high polyreactivity

QVQLVESGGGLVQAGGSLRLSCAASGSTFYSNSMGWYRQAPGKERELVAAIDWGGGSTYYADSVKGRFTISRDNETNTVYLQMNSLKPEDTAVYYCAKKYYKVHKFDYWGQGNQVTVSS
polyreactivity (PSR sort gate): low polyreactivity

QVQLVESGGGLVQAGGSLRLSCAASGSIIVNYDMGWYRQAPGKERELVAAISSGGSTKYADSVKGRFTISRDNAKNTVYLQMNSLKPEDTAVYYCAAGKHVTFSYEYRMDYWGQGTQVTVSS
polyreactivity (PSR sort gate): low polyreactivity

QVQLVESGGGLVQAGGSLRLSCAASGLTFYTYAMGWYRQAPGKERELVAAISSGGSTNYADSVKGRFTISRDNAKNTVYLQMNSLKPEDTAVYYCASGGQYYIIRYDYWGQGTQVTVSS
polyreactivity (PSR sort gate): low polyreactivity

QVQLQESGGGLMQAGGSQRLSCAASGSISYYSDMGWYRQAPGKEREFVAGIGYGTTTNYADSVKGRFTTSRDNAKNTVYLQMISMKTEDTAVYYCAAYQGNGYEFYYWGQGTQVTVRS
polyreactivity (PSR sort gate): low polyreactivity

QVKLVESGGGFLQAGGRLRLSCAASGIIFYYYAMGRYRQAPGKERELVAAISSGGSTYYSDSVKGRFTISRDNAMNTVYLQMNSLKPEDTAVYYCAADPLYTIDIEYSTYGDYDYWGQGTQVTVSS
polyreactivity (PSR sort gate): low polyreactivity

QVQLVESGGGLVQAGGSLRLSCAASGSTYPYAMGWYRPAPGKERELVAAITWSGGNTYYADSVKGRFTISRDNAKNTVYLQMNSLKPEDTAVYYCAKSRYATQTDYNYWGQGTQVTVSS
polyreactivity (PSR sort gate): high polyreactivity

QVQLVESGGGLVQAGGSLRLSCAASGSIFSPYAMGWYRQAPGKERELVAAIRWGGGCTYADSVKGRFTISRDNAKNTVYLQMNSVIPEDSAVYYCAARRRSLRGYDYWGQGTQVTVSS
polyreactivity (PSR sort gate): high polyreactivity

QVQLQESGGGLVQAGGSLRPSCAASGSISDRWWMGLYRQAPGKERESVAGINDGASTYYADSVKGRFTISCDNAKNTVYLQMNSLKPEDTAVYYCAVYVFITGCLNYWGQGTQVTVSS
polyreactivity (PSR sort gate): high polyreactivity

QVQVVESGGGFVQAGGSLRLSCAASGRTFRYYAMGWYRQAPGKERELVAVISSSDSTNYADSVKGRFTISRDNAKNTVNLQMNSLKPEDTGVYYCAKVYRVIRPYGYWGQGTQVTVSS
polyreactivity (PSR sort gate): high polyreactivity

QVQLVESGGGLVQAGGSLRLSCDASGIIFQYYAMGWYRHAPGKERELVAAISWSGGSTYYADSVKGRFTISRDNAKNTVYLQMNSLKPEDTAVYFCAARSRSFWPYEGDYWGQGTQVTLSS
polyreactivity (PSR sort gate): low polyreactivity

QVQLVESGGGLVQAGGSLRLSCAASGRIFTRYAMGWYREAPGKERELVAAIRIGDSTNYADSVKGRFTISRDNAKNTVYLQMNSLKPEDTAVYDCAAYLPRRRYYYWGQGTQVTVSS
polyreactivity (PSR sort gate): high polyreactivity

QVHLVESGGGLVQAGGSLRLSCAASGIIFHYYAMGWYRQAPGKERALVATMTSGGSTYYADSVKGRFTISRDNAKNTVYLQMNSLKPEDSAVYYCAATYGGSVFEYDYWGQGTQVTVSS
polyreactivity (PSR sort gate): low polyreactivity

QGQLVESGGGLVQAGGCLRLSCAASGAIFCYAMGWYRQAPGKERDLVAAISFSGVSTYYADSVKGRFTISRENAKNSVYLQMISLIPEDTAVYYCNAYSDGDEDYWGQGTKVTVSS
polyreactivity (PSR sort gate): low polyreactivity

QVQLVESGGGLVQAGGSHRLSCAASGFIFYVYAMGWYRQAPGKERELVATINGRRSRTYYADSVKGRFTISRDNAKNTVYLQMNSLKPEDTAVYYCAAVAWVLRYGRGDYWGQGTQVTVSL
polyreactivity (PSR sort gate): high polyreactivity

QVQLVESGGGLVHAGGSLRLSCAASGRIFTYNAMGWYRQAPGKERELVAAISTGGSTNYADSVKGRFTISRDNAKNTVYLQMNSLKPEDTAVYYCARRWWPTYDYWGQGTQVTVSS
polyreactivity (PSR sort gate): high polyreactivity

LVQLQESGGGLVLAGGGLRLSCAASGNIFTYVIMGWYRQPPGKERELVAAITYGTITNYADSVKGPFTISRDNAKNTVYLQMNCLKPEDTAVYHCAVQSPRIEPRLYYWGQGTQVTVSS
polyreactivity (PSR sort gate): high polyreactivity

QVQLVESGGGLVQAGGSLRLSCAASGSIFPLYDMGWYRPAPGKERELVAGISSGGSTNYADSVKGRFTISRDNAKNTVYLQMNSLKPEDTAVYYCAATGSSRYGYWGQGTQVTVSS
polyreactivity (PSR sort gate): low polyreactivity

QVQLVESGGGLLQAGGSLRLSCAASGSTFYDNAMGWYRQAPGKERELVAAISYSGASTYYADSVKGRFTISRDNEKNTVYLQMNSLKPEDTAVYYCAKTFYSLYWGQGTQVTGSS
polyreactivity (PSR sort gate): low polyreactivity

QLQLVESGGGLVQSGGSLRLSCAASGRTFDWYTKGWYRQAPGKERELVAAITSGGTTNYADSVKGRFTISRDNAKNTVYLQMNSLKPEDTAVYYCAKDEGEGYDYWGQGTQVTVSS
polyreactivity (PSR sort gate): low polyreactivity

QVQLVESGGGLVQAGGSLRLSCAASGRTFRYYTKGWSRQAPGKERELVADINTSVGSTDYADSVKGRFTISRDNAKNTVYLQMNSLKPEDTAVYYCAKVGFTYYAVDYWGQGTQVTVSS
polyreactivity (PSR sort gate): high polyreactivity

QVQLVESGGGLVQAGGSLRLSCAASGSTFDDNAMGWYRQAPGKERELVAAINGDGITTYADSVKGRFTISRDNAKNTVYLQMNSMKPEDTAVYYCNTVGIGAWGYSYPDEDNYWGQGTQVTVSS
polyreactivity (PSR sort gate): low polyreactivity

QVQRVESGGGLVQAGGSLRLRCAASGRTFGYYAMGWYRHAPGKERVLVAAINSRGGSTYYADPVKGRFTISRDNAKNTVYLQMNSLKPEDTAVYYCAKRWCSYGSYSLYDYWGQGTQVTVSS
polyreactivity (PSR sort gate): high polyreactivity

QVQLVESGGGLVQAGGSLRLSCAASGSTFEYYAMGWYRQAPGKERELVAAITGSGDNTYYADSVKGRFTISRDNAKNTVYLQMNSLKPEDTAVYYCAATMRVKGQYGRMYYWGQGTQVTVSS
polyreactivity (PSR sort gate): high polyreactivity
